Results: US6906033

Molecular target: Plasmin
Experiment: enzyme inhibition

Ki [nM] | Substance
0.23 | Aprotinin
0.17 | Aprotinin R15, S42
